{"source": "paper PMC6624373", "target": "lamin A R7/8E double mutant (human) (UniProt P02545)", "experiment": "rotary metal shadowing EM; in vitro assembly assay: after dialysis into 25 mM MES, 150 mM NaCl, 1 mM DTT, 1 mM EGTA pH 6.5, 30% glycerol; dimers scored as singular or incorporated into head-to-tail oligomers", "data": [{"substance": "lamin A R7/8E double mutant (from UniProt P02545 1-646) (natural protein)", "values": [{"measurement": "stoichiometry N", "result": 2}]}]}
